Test results: paper PMC3107197

Molecular target: GFP-tagged Fab1p (yeast) [yeast]
Experiment: co-immunoprecipitation (IP: Fab1p-GFP), densitometry
Conditions: Bound fraction; parent: 1

## myc-tagged Fig4p (wildtype, yeast) mutant I59T [yeast] / GFP-tagged Fab1p (yeast) [yeast] chain 1 I59T
  ratio to parent: 0.4
